Measured values as given in patent US20070128190A1 (GLENMARK PHARMACEUTICALS S A, published 2007).
Positions count from the first letter of the chain named. In names and notes the source's numbering stands.

B1: humanized TMC-2206 variant hIgG1/κ VH12.0/VL10.0Q (antibody)
heavy: not shown
light: DFVMTQSPAFLSVTPGEKVTITCSAQSSVNYIHWYQQKPDQAPKKLIYDTSKLASGVPSRFSGSGSGTDYTFTISSLEAEDAATYYCQQWTTNPLTFGQGTKVEIKRTVAAPSVFIFPPSDEQLKSGTASVVCLLNNFYPREAKVQWKVDNALQSGNSQESVTEQDSKDSTYSLSSTLTLSKADYEKHKVYACEVTHQGLSSPVTKSFNRGEC
notes: hVH12.0 γ1 heavy chain and hVL10.0Q light chain; also called VH 12.0 VL 10.0Q (IgG1)
B2: humanized TMC-2206 variant hIgG1/κ VH14.0/VL10.0Q (antibody)
heavy: not shown
light: B1 light
notes: hVH14.0 γ1 heavy chain and hVL10.0Q light chain; also called VH 14.0 VL 10.0Q (IgG1)
B3: humanized TMC-2206 variant hVH1.0/hVL1.0 (antibody, human IgG1, V domains shown)
VH: QVQLQESGPGLVKPSETLSLTCTVSGFSLTNYGIHWVRQPPGKGLEWLGVIWARGFTNYNSALMSRLTISKDNSKNQVSLKLSSVTAADTAVYFCARANDGVYYAMDYWGQGTLVTVSS
VL: QFVLTQSPAFLSVTPGEKVTITCSANSSVNYIHWYQQKPDQAPKKWIYDTSKLASGVPSRFSGSGSGTDYTFTISSLEAEDAATYYCQQWTTNPLTFGQGTKVEIK
notes: human IgG1/κ constant regions; also called humanized prototype; first humanized prototype
B4: humanized TMC-2206 variant hVH9.0, hVL1.0 (antibody, human IgG1, V domains shown)
VH: B3 VH with L48I, K71V
VL: B3 VL
notes: human IgG1/κ constant regions
B5: humanized TMC-2206 variant hVH1.0/hVL9.0 (antibody, V domains shown)
VH: B3 VH
VL: B3 VL with Y48K
notes: human IgG1/κ; also called change of L49 to the human lysine
B6: humanized TMC-2206 variant hVH11.0, hVL1.0 (antibody, human IgG1, V domains shown)
VH: B3 VH with L48I, V78F
VL: B3 VL
notes: human IgG1/κ constant regions
B7: humanized TMC-2206 variant hVH10.0/hVL1.0 (antibody, V domains shown)
VH: B3 VH with N73T
VL: B3 VL
notes: human IgG1/κ; also called change to Thr-H73
B8: TMC-2206 VH D100R variant antibody (antibody, V domains shown)
VH: QVQLKESGPGLVAPSQSLSITCTVSGFSLTNYGIHWVRQPPGKGLEWLGVIWARGFTNYNSALMSRLIITKDNSQSQVFLKMNSLQPDDSATYFCARANRGVYYAMDYWGQGTSVTVSS
VL: QFVLTQSPAFLSASPGEKVTMTCSANSSVNYIHWYQQKSGTSPKKWIYDTSKLASGVPVRFSGSGSGTSYSLTISSMETEDAATYYCQQWTTNPLTFGAGTRVELK
notes: variant murine VH-containing antibody; also called reverse charge mutant D100R
B9: GST-hα2 I domain R165D (other)
chain: GSSPDFQLSASFSPATQPCPSLIDVVVVCDESNSIYPWDAVKNFLEKFVQGLDIGPTKTQVGLIQYANNPRVVFNLNTYKTKEEMIVATSQTSQYGGDLTNTFGAIQYARKYAYSAASGGRRSATKVMVVVTDGESHDGSMLKAVIDQCNHDNILRFGIAVLGYLNDNALDTKNLIKEIKAIASIPTERYFFNVSDEAALLEKAGTLGEQIFSIEGTVEFIVTD
notes: same construct as m41; not shown: GST carrier with the pGEX-2TK vector linker at the N end
B10: humanized TMC-2206 variant hVH1.0/hVL1.0Q (antibody, human IgG1, V domains shown)
VH: B3 VH
VL: B3 VL with N26Q
notes: human IgG1/κ constant regions; also called VH 1.0 VL 1.0Q
B11: humanized TMC-2206 variant hVH14.0/hVL12.0 (antibody, human IgG1, V domains shown)
VH: B3 VH with V37I, L67V, F94Y
VL: B3 VL with Q1D, L4M, W46L, Y70F
notes: human IgG1/κ constant regions; also called VH 14.0 VL 12.0
B12: humanized TMC-2206 variant hVH14.0/hVL12.0Q (antibody, human IgG1, V domains shown)
VH: B3 VH with V37I, L67V, F94Y
VL: B3 VL with Q1D, L4M, N26Q, W46L, Y70F
notes: human IgG1/κ constant regions; also called VH 14.0 VL 12.0Q
B13: humanized TMC-2206 variant hVH14.0/hVL10.0 (antibody, human IgG1, V domains shown)
VH: B3 VH with V37I, L67V, F94Y
VL: B3 VL with Q1D, L4M, W46L
notes: human IgG1/κ constant regions; also called VH 14.0 VL 10.0
B14: humanized TMC-2206 variant hVH12.0/hVL10.0 (antibody, human IgG1, V domains shown)
VH: B3 VH with V37I, F94Y
VL: B3 VL with Q1D, L4M, W46L
notes: human IgG1/κ constant regions; also called VH 12.0 VL 10.0
B15: humanized TMC-2206 variant hVH3.0/hVL1.0 (antibody, human IgG1, V domains shown)
VH: B3 VH with L67V, K71V, N73T, V78F
VL: B3 VL
notes: human IgG1/κ constant regions
B16: humanized TMC-2206 variant hVH4.0/hVL4.0 (antibody, human IgG1, V domains shown)
VH: B3 VH with V37I, L48I
VL: B3 VL with Q1D, F2V, L4M
notes: human IgG1/κ constant regions
B17: humanized TMC-2206 variant hVH1.0/hVL3.0 (antibody, human IgG1, V domains shown)
VH: B3 VH
VL: B3 VL with K45L, W46L
notes: human IgG1/κ constant regions; also called VH1.0/VL3.0
B18: humanized TMC-2206 variant hVH1.0/hVL4.0 (antibody, human IgG1, V domains shown)
VH: B3 VH
VL: B3 VL with Q1D, F2V, L4M
notes: human IgG1/κ constant regions
B19: humanized TMC-2206 variant hVH3.0/hVL3.0 (antibody, human IgG1, V domains shown)
VH: B3 VH with L67V, K71V, N73T, V78F
VL: B3 VL with K45L, W46L
notes: human IgG1/κ constant regions
B20: humanized TMC-2206 variant hVH3.0/hVL4.0 (antibody, human IgG1, V domains shown)
VH: B3 VH with L67V, K71V, N73T, V78F
VL: B3 VL with Q1D, F2V, L4M
notes: human IgG1/κ constant regions
B21: humanized TMC-2206 variant hVH4.0/hVL3.0 (antibody, human IgG1, V domains shown)
VH: B3 VH with V37I, L48I
VL: B3 VL with K45L, W46L
notes: human IgG1/κ constant regions
B22: humanized TMC-2206 variant hVH4.0/hVL1.0 (antibody, human IgG1, V domains shown)
VH: B3 VH with V37I, L48I
VL: B3 VL
notes: human IgG1/κ constant regions
B23: humanized TMC-2206 variant hIgG4/κ VH14.0/VL10.0Q (antibody)
heavy: not shown
light: B1 light
notes: hVH14.0 γ4 heavy chain and hVL10.0Q light chain

biological target: T1, human α2 integrin with endogenous hamster β1 on CHO cells (human; hamster); experiment: cell-based or functional assay

Point of comparison: B1, “EC50 (nM), cell adhesion to collagen assay” value 2.2 nM. Against it:
- B2 — 1.7-fold lower, 1.3 nM

biological target: T2, human platelet α2β1 integrin (immobilized on microtiter plates) (human, UniProt P17301 30-1181; P05556 21-798); experiment: competition with Eu-TMC-2206 on human platelet α2β1-coated plate
T2 construct: plates custom-coated with human platelet α2β1 by GTI Inc; also called immobilized α2β1 integrin; α2β1-coated plates

Point of comparison: B8, Ki 0.41 nM. Against it:
- B3 — within 1.5-fold, 0.32 nM

In the case of B4, the “fold decrease (Ki)” value is reported as 6.4 fold.

For B5, the “fold decrease in potency as measured by Ki” value was 3.3 fold.

With B6 the “fold decrease in potency compared to the hVH1.0, hVL1.0 variant (Ki)” value was 70 fold.

With B7 the “fold decrease as measured by Ki” value was 1.6 fold.

biological target: T3, TMC-2206; experiment: fusion protein competing Eu-TMC-2206 off α2β1-coated plate
T3 construct: murine IgG1/κ secreted by hybridoma BHA2.1; labelled with Eu-N1-ITC where used as tracer; also called BHA2.1

In the case of B9, the Ki is reported as 1990 nM.

biological target: T2, human platelet α2β1 integrin …; experiment: competition with Eu-TMC-2206 on human platelet α2β1-coated plate; remark: another data set of the same source
Procedure: (§1) Each labeled antibody mixture was applied to a separate PD-10 column (GE Biosciences, Piscataway, N.J.) pre-equilibrated with Running Buffer (50 mM Tris, pH 7.4 and 138 mM NaCl). Fractions (0.5 mL) were collected and assayed for total protein (Bradford reagent; Bio-Rad Laboratories, Hercules, Calif.) using a SpectraMax 384 absorbance plate reader and for europium after 1:10.000 dilution in DELFIA Enhancement Solution (Perkin-Elmer) by time-resolved fluorescence (TRF) using a Victor2 multi-label plate reader (Perkin Elmer). The fractions that were positive for both protein and Eu label were pooled and applied to new PD-10 columns and samples collected and assayed for total protein and for europium content by TRF calibrated against a europium standard solution (Perkin-Elmer) to calculate the fluor: protein ratio. […] After incubating the sealed plates for 1 hr at 37° C. to allow binding to reach equilibrium, 2 μL samples were transferred from each well into a fresh well containing DELFIA Enhancement Solution (100 μL/well; Perkin-Elmer) for the measurement of free (unbound) label. Enhancement Solution (100 μL/well) was added to the emptied wells for the measurement of bound label. The plate was shaken (Titer Plate Shaker speed setting of 5 for 5 minutes at room temperature) and time-resolved fluorescent (TRF) intensities were read using a Victor2 multi-label plate reader (Perkin-Elmer Wallac, Boston, Mas.).

Point of comparison: B2, Ki 0.29 nM. Against it:
- B3 — within 1.5-fold, 0.27 nM
- B10 — within 1.5-fold, 0.35 nM
- B11 — within 1.5-fold, 0.38 nM
- B12 — within 1.5-fold, 0.33 nM
- B13 — within 1.5-fold, 0.32 nM
- B14 — the same, 0.29 nM
- B1 — within 1.5-fold, 0.31 nM

biological target: T1, human α2 integrin with endogenous …; experiment: cell-based or functional assay; remark: another data set of the same source

In the case of B3, the “EC50, inhibition of cell adhesion to collagen” value is reported as 1.5 nM.

biological target: T2, human platelet α2β1 integrin …; experiment: competition with Eu-TMC-2206 on human platelet α2β1-coated plate; remark: another data set of the same source
Procedure: as §1

Point of comparison: B20, Ki 118 nM. Against it:
- B3 — 360-fold lower, 0.33 nM
- B15 — 9.8-fold lower, 12 nM
- B16 — 45-fold lower, 2.6 nM
- B17 — 180-fold lower, 0.64 nM
- B18 — 84-fold lower, 1.4 nM
- B19 — 1.7-fold higher, 202 nM
- B21 — 88-fold lower, 1.34 nM
- B22 — 270-fold lower, 0.44 nM

Point of comparison: B20, “fold shift in potency compared to the hVH1.0, hVL1.0 variant” value 358 fold. Against it:
- B15 — lower, 36 fold
- B16 — lower, 7.9 fold
- B17 — lower, 1.9 fold
- B18 — lower, 4.2 fold
- B19 — higher, 631 fold
- B21 — lower, 4.2 fold
- B22 — lower, 1.3 fold

biological target: T2, human platelet α2β1 integrin …; experiment: as above; remark: another data set of the same source
Procedure: Exemplary IgG1 antibodies have a hVH 14.0 γ heavy chain (SEQ ID NO:181) or a hVH12.0 γ1 heavy chain (SEQ ID NO:182) and a hVL10.0Q light chain (SEQ ID NO:178). Exemplary IgG4 antibodies have a hVH14.0 γ4 heavy chain (SEQ ID NO:174) or a hVH12.0 γ4 heavy chain (SEQ ID NO:176) and a hVL 10.0Q light chain (SEQ ID NO:178). Purified antibodies were tested in the competition assay to compare potency by Kᵢ values as well as in the cell adhesion to collagen assay, where potency is measured as EC₅₀ values.

Point of comparison: B2, Ki 0.24 nM. Against it:
- B1 — within 1.5-fold, 0.27 nM
- B23 — 1.5-fold higher, 0.36 nM
